According to patent US20240124531A1, “COMPOUNDS AND METHODS FOR EXTENDING HALF LIFE OF BIOMOLECULES” (AFFILOGIC, priority 2021, published 2024):

B1: Nanofitin B11 (designed binder)
chain: VKVKFWPRGEEKVVDTSKIAWVLRADKTVMFKYDDNGKKGYGVVLEKDAPKELLDMLARAEREK
notes: Variant of Sac7d; also called anti-albumin Nanofitin
B2: Nanofitin F06 (designed binder)
chain: VKVKFVFSGEEKEVETSKIKWVLRWGKAVGFKYDDQGKIGYGFVAEKDAPKELLDMLARAEREK
notes: also called anti-albumin Nanofitin

Tests used:
[1] = fluorescein alone, single i.v. injection, analysis of literature data (Chahal et al.); cited from earlier work
[2] = biological target: T1, Mouse serum albumin (Mouse, UniProt P07724 25-608); test: biolayer interferometry, cross reactivity pattern (graded strength of binding)
T1 construct: also called MSA
T1 sequence (P07724 25-608 limits assumed): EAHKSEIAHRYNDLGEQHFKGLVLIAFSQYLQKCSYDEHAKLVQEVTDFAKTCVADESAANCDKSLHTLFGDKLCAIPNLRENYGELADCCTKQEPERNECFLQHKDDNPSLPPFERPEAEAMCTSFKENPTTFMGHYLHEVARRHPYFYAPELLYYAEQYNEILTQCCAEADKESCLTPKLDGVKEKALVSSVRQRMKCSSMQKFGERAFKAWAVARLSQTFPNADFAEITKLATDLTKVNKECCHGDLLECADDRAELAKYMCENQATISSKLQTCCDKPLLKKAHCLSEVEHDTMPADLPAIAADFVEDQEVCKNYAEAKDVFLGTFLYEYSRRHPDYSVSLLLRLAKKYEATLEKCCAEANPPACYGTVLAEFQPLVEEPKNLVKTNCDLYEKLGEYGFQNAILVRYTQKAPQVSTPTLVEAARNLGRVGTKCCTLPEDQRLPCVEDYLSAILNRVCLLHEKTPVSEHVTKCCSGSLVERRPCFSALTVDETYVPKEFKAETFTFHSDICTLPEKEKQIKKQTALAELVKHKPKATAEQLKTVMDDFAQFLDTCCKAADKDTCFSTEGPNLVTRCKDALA

[3] = biological target: T2, Rat serum albumin (Rat, UniProt P02770 25-608); test: as above
T2 construct: also called RSA
T2 sequence (P02770 25-608 limits assumed): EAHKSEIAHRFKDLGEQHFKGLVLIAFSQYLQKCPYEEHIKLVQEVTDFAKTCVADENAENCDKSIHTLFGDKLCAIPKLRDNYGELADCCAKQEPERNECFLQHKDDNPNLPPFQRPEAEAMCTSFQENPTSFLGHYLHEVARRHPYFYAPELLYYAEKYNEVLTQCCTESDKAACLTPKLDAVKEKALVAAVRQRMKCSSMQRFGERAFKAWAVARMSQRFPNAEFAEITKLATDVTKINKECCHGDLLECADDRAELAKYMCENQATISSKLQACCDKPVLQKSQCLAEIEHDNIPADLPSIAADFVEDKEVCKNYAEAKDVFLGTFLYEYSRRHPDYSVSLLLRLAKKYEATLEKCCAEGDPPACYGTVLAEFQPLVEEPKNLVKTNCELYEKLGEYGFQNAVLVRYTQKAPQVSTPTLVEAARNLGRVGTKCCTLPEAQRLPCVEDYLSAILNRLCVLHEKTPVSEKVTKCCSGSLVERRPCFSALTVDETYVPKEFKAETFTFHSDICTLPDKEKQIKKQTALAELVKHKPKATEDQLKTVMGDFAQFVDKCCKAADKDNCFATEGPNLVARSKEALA

[4] = biological target: T3, Cynomolgus monkey serum albumin (Cynomolgus monkey, UniProt A2V9Z4 25-608); test: as above
T3 construct: also called CSA
T3 sequence (A2V9Z4 25-608 limits assumed): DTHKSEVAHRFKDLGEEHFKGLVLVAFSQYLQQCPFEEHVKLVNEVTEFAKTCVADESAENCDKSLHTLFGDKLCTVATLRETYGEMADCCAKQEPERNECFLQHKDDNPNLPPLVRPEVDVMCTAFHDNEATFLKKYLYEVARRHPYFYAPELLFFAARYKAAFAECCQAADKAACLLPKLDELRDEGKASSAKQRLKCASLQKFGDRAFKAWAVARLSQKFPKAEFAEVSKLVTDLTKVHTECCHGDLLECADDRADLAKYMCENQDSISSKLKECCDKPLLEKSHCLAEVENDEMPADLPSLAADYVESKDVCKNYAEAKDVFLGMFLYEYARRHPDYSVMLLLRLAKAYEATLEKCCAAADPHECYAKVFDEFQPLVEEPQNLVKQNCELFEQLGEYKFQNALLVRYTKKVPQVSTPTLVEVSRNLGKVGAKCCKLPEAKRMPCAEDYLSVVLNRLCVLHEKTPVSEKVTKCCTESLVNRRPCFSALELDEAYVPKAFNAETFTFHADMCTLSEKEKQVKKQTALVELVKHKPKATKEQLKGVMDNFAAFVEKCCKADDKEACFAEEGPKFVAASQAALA

[5] = biological target: T4, Rabbit serum albumin (Rabbit, UniProt P49065 25-608); test: biolayer interferometry, cross reactivity on albumins of different species; legend: '-' symbol refers to an absence of detectable binding
T4 construct: also called RabSA; RabSa
T4 sequence (P49065 25-608 limits assumed): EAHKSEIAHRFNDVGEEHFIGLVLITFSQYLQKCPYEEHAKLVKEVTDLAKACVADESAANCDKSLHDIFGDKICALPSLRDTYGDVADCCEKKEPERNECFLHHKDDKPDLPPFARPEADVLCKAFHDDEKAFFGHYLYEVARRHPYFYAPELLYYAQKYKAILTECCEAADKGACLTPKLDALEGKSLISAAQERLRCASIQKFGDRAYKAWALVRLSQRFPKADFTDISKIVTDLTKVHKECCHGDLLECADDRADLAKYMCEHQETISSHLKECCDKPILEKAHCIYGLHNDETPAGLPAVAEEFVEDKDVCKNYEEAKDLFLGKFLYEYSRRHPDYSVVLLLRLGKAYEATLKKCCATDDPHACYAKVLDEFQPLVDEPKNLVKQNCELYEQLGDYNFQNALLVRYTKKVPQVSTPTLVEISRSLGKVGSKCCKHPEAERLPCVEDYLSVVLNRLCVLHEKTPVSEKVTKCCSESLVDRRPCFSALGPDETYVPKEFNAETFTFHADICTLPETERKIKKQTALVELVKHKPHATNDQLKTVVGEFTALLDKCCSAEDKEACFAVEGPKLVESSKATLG

[6] = biological target: T5, human serum albumin (human, UniProt P02768 25-609, biotinylated (sites not given) in the biolayer interferometry of Example 1); test: biolayer interferometry (octet red96); biotinylated HSA on streptavidin biosensors, Nanofitin 15.6-1000 nM
T5 construct: Biotinylated HSA immobilised on streptavidin biosensors; also called HSA

[7] = biological target: T6, human serum albumin Domain I (aa1-197) (human, UniProt P02768 25-221); test: biolayer interferometry, His-tagged F06 on Ni-NTA biosensors, albumin domain at 250 nM, response at 180 s
T6 construct: range 1-197; Domain III ends at 585, so they probably count on mature albumin (585 residues) and not on the precursor entry
Excerpt: (§1) The albumin is described as having three domains, dubbed domain I, II and III. Interaction of the albumin with the FcRn receptor involves domain I and III. Domain I (aa1-197), domain II (aa189-385), and domain III (aa381-585) and Domain I-II (aa1-385) were obtained from Albumin Bioscience. Interaction of the anti-albumin Nanofitins with the different domains was investigated by biolayer interferometry according to the following procedure. […] The sensors were then allowed to equilibrate for 60 sec in protein free blocking buffer (Thermo Scientific) supplemented with 0.002% of tween20.

[8] = biological target: T7, human serum albumin domain III (aa381-585) (human, UniProt P02768 405-609); test: as above
T7 construct: range 381-585; The residue numbers probably count on mature albumin (585 residues)
Excerpt: as §1

Molecule	t1/2 in mouse serum [1]	binding result [2]	binding result [3]	binding result [4]	binding result [5]	Kd [6] [nM]	koff [6] [s⁻¹]	binding result [7]	binding result [8]
O=C1OC2(c3ccc(O)cc3Oc3cc(O)ccc32)c2ccccc21 [Fluorescein]	about 8 min								
B1		binds	binds	binds	no binding				
B2					no binding	8.38	0.000304	no binding (tested: 250 nM)	no binding (tested: 250 nM)
